The assay deals with human transforming growth factor β2 (TGFβ2) (human) (UniProt P61812). In words: cell-based or functional assay.
human transforming growth factor β2 (TGFβ2) (human), sequence (P61812 303-414 limits assumed): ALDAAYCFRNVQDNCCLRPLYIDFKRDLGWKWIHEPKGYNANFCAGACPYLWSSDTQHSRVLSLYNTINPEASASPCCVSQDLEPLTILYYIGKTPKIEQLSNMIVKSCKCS

For latency-associated protein (LAP), the Ki, reversal of TGFβ2-mediated inhibition of 3H-thymidine incorporation in mink lung epithelial cells turned out to be 0.5 nM.
